According to publication PMC10440729 (Journal of the American Chemical Society, 2022):

Assays:
[1] = tested on: STZ-induced C57BL/6J diabetic mouse model; test: Blood glucose lowering in STZ-induced diabetic mice; type: in vivo; conditions: 5 IU insulin/kg subcutaneous, blood glucose after 4 hours, n = 3
[2] = DOSY NMR diffusion coefficient / oligomerization state; type: physicochemical; conditions: 4 °C, suggests a mixture of dimers and hexamers
[3] = reported value, cited from earlier work

| Substance | duration of blood glucose response [1] | diffusion coefficient (D) [2] | reported D of dimers ([3]; insulin dimers) | reported D of hexamers ([3]; insulin hexamers) |
| --- | --- | --- | --- | --- |
| 2A-S-Ins: discrete 2A IEG polytriazole (all S) conjugated to N-terminus of insulin chain B by SPAAC | longer-lasting effects than Lantus | – | – | – |
| insulin | – | ~ 1 × 10^−6 cm^2/s | 1.22 × 10^−6 cm^2/s | 0.87 × 10^−6 cm^2/s |
